# B1: RetSHK (histidine kinase region of the sensor histidine kinase RetS, residues 413-649) (domain or fragment)
# chain: QTKAEFLAKISHEIRTPMNGVLGMTELLLGTPLSAKQRDYVQTIHSAGNELLTLINEILDISKLESGQIELDEVQFDLNALIEDCLDIFRVKAEQQRIELISFTQPQVPRVIGGDPTRLRQVVLSLLDNAFKQTEEGEILLVVALDDQGETPRLRIAVQDSGHPFDAKEREALLTAELHSGDFLSASKLGSHLGLIIARQLVRLMGGEFGIQSGSSQGTTLSLTLPLDPQQLENPTA
# Key:
# [1] = molecular target: CitAGacS649 (chimeric protein: GacS649 with its PDC domain replaced by the PDC domain of CitA from Klebsiella pneumoniae, C-terminal octa-histidine tag) (Pseudomonas aeruginosa | Klebsiella pneumoniae) (UniProt P52687); experiment: MST; CitAGacS649 labelled with AlexaFluor 488 at 80 nM, RetSHK titrated from 140 uM to 1.06 nM, 37 °C, 0.007% DDM, with 10 mM sodium citrate
# [2] = molecular target: CitAGacS649 (chimeric protein: GacS649 with its PDC domain replaced by the PDC domain of CitA from Klebsiella pneumoniae, C-terminal octa-histidine tag) (Pseudomonas aeruginosa | Klebsiella pneumoniae) (UniProt P52687); experiment: MST; GacS649 or CitAGacS649 labelled with AlexaFluor 488 at 80 nM, RetSHK titrated from 140 uM to 1.06 nM, 37 °C, 0.007% DDM, no citrate; apparent constants
# [3] = molecular target: GacS649 (GacS residues 1-649 with C-terminal octa-histidine tag) (Pseudomonas aeruginosa); experiment: as above
binder,measurement,setting,value
B1,fold decrease in affinity with 10 mM citrate against no citrate,[1],5 fold
same,Kd,[2],10 µM
same,Kd,[3],10 µM
